Source: publication PMC9813255, “PQBP5/NOL10 maintains and anchors the nucleolus under physiological and osmotic stress conditions” (Nature Communications, 2023)

Biological target: T1, human nucleolin (His-tag fusion protein) (human, UniProt P19338 1-710)
T1 construct: nucleolin, human, amplified from HEK293 cDNA into pET-28a; the printed primers run from the start codon to the stop codon; this is read from the printed primers; source: E. coli Rosetta 2(DE3), purified (Ni-NTA agarose)
Test: SPR; Biacore T100, 25 °C; one protein immobilised on a CM5 chip (200 RU), analytes at 0-50 nM, 180 s at 10 μl/min; 25 mM Tris-HCl, 500 mM NaCl, 10% glycerol, 1% Triton X-100, pH 8.0
Conditions: both partners purified

T1 sequence (P19338 whole entry, the tested form may be a part): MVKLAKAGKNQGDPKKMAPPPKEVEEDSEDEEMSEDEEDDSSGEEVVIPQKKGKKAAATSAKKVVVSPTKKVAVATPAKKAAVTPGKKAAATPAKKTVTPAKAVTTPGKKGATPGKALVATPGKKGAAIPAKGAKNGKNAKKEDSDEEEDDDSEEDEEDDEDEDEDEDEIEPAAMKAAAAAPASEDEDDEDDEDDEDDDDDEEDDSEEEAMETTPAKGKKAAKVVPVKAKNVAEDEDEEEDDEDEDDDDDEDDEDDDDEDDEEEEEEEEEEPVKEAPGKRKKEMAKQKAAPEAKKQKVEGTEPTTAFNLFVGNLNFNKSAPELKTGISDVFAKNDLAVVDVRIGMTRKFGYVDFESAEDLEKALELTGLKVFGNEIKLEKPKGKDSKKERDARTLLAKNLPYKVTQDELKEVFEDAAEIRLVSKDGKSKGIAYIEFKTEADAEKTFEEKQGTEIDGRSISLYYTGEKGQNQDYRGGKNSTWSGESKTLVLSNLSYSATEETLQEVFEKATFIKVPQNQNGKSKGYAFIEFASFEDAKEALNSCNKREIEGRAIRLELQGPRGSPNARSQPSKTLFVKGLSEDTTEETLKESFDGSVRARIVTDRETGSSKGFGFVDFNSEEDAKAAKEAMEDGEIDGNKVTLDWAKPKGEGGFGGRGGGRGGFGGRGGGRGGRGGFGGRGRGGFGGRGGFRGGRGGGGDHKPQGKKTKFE

binding result: binds
B1: human fibrillarin (His-tag fusion protein) (natural protein, UniProt P22087 1-321, looked up)
chain: MKPGFSPRGGGFGGRGGFGDRGGRGGRGGFGGGRGRGGGFRGRGRGGGGGGGGGGGGGRGGGGFHSGGNRGRGRGGKRGNQSGKNVMVEPHRHEGVFICRGKEDALVTKNLVPGESVYGEKRVSISEGDDKIEYRAWNPFRSKLAAAILGGVDQIHIKPGAKVLYLGAASGTTVSHVSDIVGPDGLVYAVEFSHRSGRDLINLAKKRTNIIPVIEDARHPHKYRMLIAMVDVIFADVAQPDQTRIVALNAHTFLRNGGHFVISIKANCIDSTASAEAVFASEVKKMQQENMKPQEQLTLEPYERDHAVVVGVYRPPPKVKN
notes: fibrillarin, human, amplified from HEK293 cDNA into pET-28a; the printed primers run from the start codon to the stop codon; this is read from the printed primers; source: E. coli Rosetta 2(DE3), purified (Ni-NTA agarose)
